Results reported in PMC12830090.

Experiments:
Test in all cases: NMR
[1] = biological target: Cys31 (UniProt position 31, FGTDWCGHCQA); conditions: 298 K; reduced (dithiol) Patrx2, with DTT
[2] = biological target: Cys34 (UniProt position 34, DWCGHCQAAQP); conditions: 298 K; reduced (dithiol) Patrx2, with DTT
[3] = biological target: His33 (UniProt position 33, TDWCGHCQAAQ); conditions: 298 K

Substance: Patrx2 (atypical thioredoxin, PA2694) (Pseudomonas aeruginosa)
- pKa [1]: 5.8
- pKa [2]: greater than 11.5
- pKa ([3]; oxidised (C31-C34 disulfide) Patrx2, without DTT): less than 5
- pKa ([3]; reduced (dithiol) Patrx2, with DTT): 6.3
